Residue numbers refer to the chain shown, from its start.
Molecular target: T1, human GFRAL (UniProtKB-Q6UXVO) (human, UniProt Q6UXV0 19-394)
T1 sequence (looked up): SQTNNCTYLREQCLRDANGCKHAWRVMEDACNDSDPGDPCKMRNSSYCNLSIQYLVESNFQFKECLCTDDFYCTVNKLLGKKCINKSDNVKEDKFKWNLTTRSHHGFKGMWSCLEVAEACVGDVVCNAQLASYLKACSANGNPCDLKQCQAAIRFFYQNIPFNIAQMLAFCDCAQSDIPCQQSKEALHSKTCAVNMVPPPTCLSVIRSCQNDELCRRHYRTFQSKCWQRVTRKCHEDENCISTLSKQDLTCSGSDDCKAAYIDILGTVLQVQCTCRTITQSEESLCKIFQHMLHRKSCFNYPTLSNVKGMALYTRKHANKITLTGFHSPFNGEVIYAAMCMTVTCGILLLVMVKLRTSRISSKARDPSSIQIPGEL
Assay: cell-based or functional assay

B1: Fc-GDF15 fusion protein M9 (Fc fusion)
chain: APEAAGGPSVFLFPPKPKDTLMISRTPEVTCVVVDVSQEDPEVQFNWYVDGVEVHNAKTKPREEQFNSTYRVVSVLTVLHQDWLNGKEYKCKVSNKGLPSSIEKTISKAKGQPREPQVYTLPPSQREMTKNQVSLTCLVKGFYPSDIAVEWESNGQPENNYKTTPPVLDSDGSFFLYSRLTVDKSRWQEGNVFSCSVMHEALHNHYTQKSLSLSLGGGGGSGGGGSAPAPAPAPAPAPAPAPAPAPGGGGSGGGGSDHCPLGPGRCCRLHTVRASLEDLGWADWVLSPREVQVTMCIGACPSQFRAANMHAQIKTSLHRLKPDTVPAPCCVPASYNPMVLIQKTDTGVSLQTYDDLLAKDCHCI
  Relative activity ratio (native GDF15 EC50: Fc-GDF15 construct EC50), ERK1/2 phosphorylation HTRF in HEK293T cells expressing human GFRAL and RET: 1.33 ratio

B2: Fc-GDF15 fusion protein M29 (Fc fusion)
chain: B1 chain with R126E, K209E, A299D
  Relative activity ratio (native GDF15 EC50: Fc-GDF15 construct EC50), ERK1/2 phosphorylation HTRF in HEK293T cells expressing human GFRAL and RET: 1.26 ratio

B3: Fc-GDF15 fusion protein M25 (Fc fusion)
chain: B1 chain with R126E, K209E, R273H
  Relative activity ratio (native GDF15 EC50: Fc-GDF15 construct EC50), ERK1/2 phosphorylation HTRF in HEK293T cells expressing human GFRAL and RET: 4.76 ratio

B4: Fc-GDF15 fusion protein M32 (Fc fusion)
chain: B1 chain with R126E, K209E, M309T
  Relative activity ratio (native GDF15 EC50: Fc-GDF15 construct EC50), ERK1/2 phosphorylation HTRF in HEK293T cells expressing human GFRAL and RET: 1.26 ratio

B5: Fc-GDF15 fusion protein M27 (Fc fusion)
chain: B1 chain with R126E, K209E, D278E, K321R
  Relative activity ratio (native GDF15 EC50: Fc-GDF15 construct EC50), ERK1/2 phosphorylation HTRF in HEK293T cells expressing human GFRAL and RET: 2.66 ratio

B6: Fc-GDF15 fusion protein M26 (Fc fusion)
chain: B1 chain with R126E, K209E, D278E
  Relative activity ratio (native GDF15 EC50: Fc-GDF15 construct EC50), ERK1/2 phosphorylation HTRF in HEK293T cells expressing human GFRAL and RET: 2.91 ratio

B7: Fc-GDF15 fusion protein M11 (Fc fusion)
chain: B1 chain with R126A
  Relative activity ratio (native GDF15 EC50: Fc-GDF15 construct EC50), ERK1/2 phosphorylation HTRF in HEK293T cells expressing human GFRAL and RET: 2.02 ratio

B8: Fc-GDF15 fusion protein M24 (Fc fusion)
chain: B1 chain with R126E, K209E, R273Q
  Relative activity ratio (native GDF15 EC50: Fc-GDF15 construct EC50), ERK1/2 phosphorylation HTRF in HEK293T cells expressing human GFRAL and RET: 2.65 ratio

B9: Fc-GDF15 fusion protein M33 (Fc fusion)
chain: B1 chain with R126E, K209E, R319Q
  Relative activity ratio (native GDF15 EC50: Fc-GDF15 construct EC50), ERK1/2 phosphorylation HTRF in HEK293T cells expressing human GFRAL and RET: 0.84 ratio

B10: Fc-GDF15 fusion protein M35 (Fc fusion)
chain: B1 chain with R126E, K209E, T346E
  Relative activity ratio (native GDF15 EC50: Fc-GDF15 construct EC50), ERK1/2 phosphorylation HTRF in HEK293T cells expressing human GFRAL and RET: 0.19 ratio

B11: Fc-GDF15 fusion protein M22 (Fc fusion)
chain: B1 chain with R126E, K209E, H258E
  Relative activity ratio (native GDF15 EC50: Fc-GDF15 construct EC50), ERK1/2 phosphorylation HTRF in HEK293T cells expressing human GFRAL and RET: 1.42 ratio

B12: Fc-GDF15 fusion protein M20 (Fc fusion)
chain: B1 chain with R126E, K209E, D257E
  Relative activity ratio (native GDF15 EC50: Fc-GDF15 construct EC50), ERK1/2 phosphorylation HTRF in HEK293T cells expressing human GFRAL and RET: 3.08 ratio

B13: Fc-GDF15 fusion protein M34 (Fc fusion)
chain: B1 chain with R126E, K209E, A333S
  Relative activity ratio (native GDF15 EC50: Fc-GDF15 construct EC50), ERK1/2 phosphorylation HTRF in HEK293T cells expressing human GFRAL and RET: 0.9 ratio

B14: Fc-GDF15 fusion protein M31 (Fc fusion)
chain: B1 chain with R126E, K209E, A307E
  Relative activity ratio (native GDF15 EC50: Fc-GDF15 construct EC50), ERK1/2 phosphorylation HTRF in HEK293T cells expressing human GFRAL and RET: 0.87 ratio

B15: Fc-GDF15 fusion protein M30 (Fc fusion)
chain: B1 chain with R126E, K209E, A306S
  Relative activity ratio (native GDF15 EC50: Fc-GDF15 construct EC50), ERK1/2 phosphorylation HTRF in HEK293T cells expressing human GFRAL and RET: 1.51 ratio

B16: Fc-GDF15 fusion protein M36 (Fc fusion)
chain: B1 chain with R126E, K209E, K359Q
  Relative activity ratio (native GDF15 EC50: Fc-GDF15 construct EC50), ERK1/2 phosphorylation HTRF in HEK293T cells expressing human GFRAL and RET: 0.82 ratio

B17: Fc-GDF15 fusion protein M10 (Fc fusion)
chain: B1 chain with R126Q
  Relative activity ratio (native GDF15 EC50: Fc-GDF15 construct EC50), ERK1/2 phosphorylation HTRF in HEK293T cells expressing human GFRAL and RET: 1.62 ratio

B18: Fc-GDF15 fusion protein M21 (Fc fusion)
chain: APEAAGGPSVFLFPPKPKDTLMISRTPEVTCVVVDVSQEDPEVQFNWYVDGVEVHNAKTKPREEQFNSTYRVVSVLTVLHQDWLNGKEYKCKVSNKGLPSSIEKTISKAKGQPREPQVYTLPPSQEEMTKNQVSLTCLVKGFYPSDIAVEWESNGQPENNYKTTPPVLDSDGSFFLYSRLTVDKSRWQEGNVFSCSVMHEALHNHYTQESLSLSLGGGGGSGGGGSAPAPAPAPAPAPAPAPAPAPGGGGSGGGGSDCPLGPGRCCRLHTVRASLEDLGWADWVLSPREVQVTMCIGACPSQFRAANMHAQIKTSLHRLKPDTVPAPCCVPASYNPMVLIQKTDTGVSLQTYDDLLAKDCHCI
  Relative activity ratio (native GDF15 EC50: Fc-GDF15 construct EC50), ERK1/2 phosphorylation HTRF in HEK293T cells expressing human GFRAL and RET: 3.87 ratio

B19: Fc-GDF15 fusion protein M23 (Fc fusion)
chain: B18 chain with D257E
  Relative activity ratio (native GDF15 EC50: Fc-GDF15 construct EC50), ERK1/2 phosphorylation HTRF in HEK293T cells expressing human GFRAL and RET: 3.38 ratio

B20: Fc-GDF15 fusion protein M2 (Fc fusion)
chain: APEAAGGPSVFLFPPKPKDTLMISRTPEVTCVVVDVSQEDPEVQFNWYVDGVEVHNAKTKPREEQFNSTYRVVSVLTVLHQDWLNGKEYKCKVSNKGLPSSIEKTISKAKGQPREPQVYTLPPSQEEMTKNQVSLTCLVKGFYPSDIAVEWESNGQPENNYKTTPPVLDSDGSFFLYSRLTVDKSRWQEGNVFSCSVMHEALHNHYTQESLSLSLGGGGGSGGGGSAPAPAPAPAPAPAPAPAPAPGGGGSGGGGSARNGDHCPLGPGRCCRLHTVRASLEDLGWADWVLSPREVQVTMCIGACPSQFRAANMHAQIKTSLHRLKPDTVPAPCCVPASYNPMVLIQKTDTGVSLQTYDDLLAKDCHCI
  Relative activity ratio (native GDF15 EC50: Fc-GDF15 construct EC50), ERK1/2 phosphorylation HTRF in HEK293T cells expressing human GFRAL and RET: 3.27 ratio

B21: natural GDF15 (ACROBiosystems, GD5-H5149) (ligand)
chain: ARNGDHCPLGPGRCCRLHTVRASLEDLGWADWVLSPREVQVTMCIGACPSQFRAANMHAQIKTSLHRLKPDTVPAPCCVPASYNPMVLIQKTDTGVSLQTYDDLLAKDCHCI
  Relative activity ratio (native GDF15 EC50: Fc-GDF15 construct EC50), ERK1/2 phosphorylation HTRF in HEK293T cells expressing human GFRAL and RET: 1 ratio

B22: Fc-GDF15 fusion protein M13 (Fc fusion)
chain: EAAGGPSVFLFPPKPKDTLMISRTPEVTCVVVDVSQEDPEVQFNWYVDGVEVHNAKTKPREEQFNSTYRVVSVLTVLHQDWLNGKEYKCKVSNKGLPSSIEKTISKAKGQPREPQVYTLPPSQEEMTKNQVSLTCLVKGFYPSDIAVEWESNGQPENNYKTTPPVLDSDGSFFLYSRLTVDKSRWQEGNVFSCSVMHEALHNHYTQESLSLSLGGGGGSGGGGSAPAPAPAPAPAPAPAPAPAPGGGGSGGGGSDHCPLGPGRCCRLHTVRASLEDLGWADWVLSPREVQVTMCIGACPSQFRAANMHAQIKTSLHRLKPDTVPAPCCVPASYNPMVLIQKTDTGVSLQTYDDLLAKDCHCI
  Relative activity ratio (native GDF15 EC50: Fc-GDF15 construct EC50), ERK1/2 phosphorylation HTRF in HEK293T cells expressing human GFRAL and RET: 1.89 ratio

— patent US20240350588A1 (SUNSHINE LAKE PHARMA, published 2024)
